# How the values were obtained:
# [1] = molecular target: T1, casein peptide αs1-casein(1-17) (UniProt P02662)
# T1 sequence: RPKHPIKHQGLPQEVLN
# [2] = molecular target: type III mucin partially purified from porcine stomach (porcine); experiment: dot blot, ~1 ug ligand on nitrocellulose, 125I-labelled binder, autoradiograph density divided by Ponceau S density, mean of two dots
# [3] = molecular target: laminin from the basement membrane of Engelbreth-Holm-Swarm mouse sarcoma (mouse) (UniProt P19137); experiment: as above
# [4] = molecular target: bovine serum albumin (bovine) (UniProt P02769); experiment: as above
# [5] = molecular target: type IV collagen from human placenta (human) (UniProt P02462); experiment: as above
# [6] = molecular target: fibronectin from human plasma (human) (UniProt P02751); experiment: as above
# [7] = molecular target: type I collagen from calf skin (calf) (UniProt P02453); experiment: as above
# Chain of UniProt P02769 (P02769 25-607 limits assumed): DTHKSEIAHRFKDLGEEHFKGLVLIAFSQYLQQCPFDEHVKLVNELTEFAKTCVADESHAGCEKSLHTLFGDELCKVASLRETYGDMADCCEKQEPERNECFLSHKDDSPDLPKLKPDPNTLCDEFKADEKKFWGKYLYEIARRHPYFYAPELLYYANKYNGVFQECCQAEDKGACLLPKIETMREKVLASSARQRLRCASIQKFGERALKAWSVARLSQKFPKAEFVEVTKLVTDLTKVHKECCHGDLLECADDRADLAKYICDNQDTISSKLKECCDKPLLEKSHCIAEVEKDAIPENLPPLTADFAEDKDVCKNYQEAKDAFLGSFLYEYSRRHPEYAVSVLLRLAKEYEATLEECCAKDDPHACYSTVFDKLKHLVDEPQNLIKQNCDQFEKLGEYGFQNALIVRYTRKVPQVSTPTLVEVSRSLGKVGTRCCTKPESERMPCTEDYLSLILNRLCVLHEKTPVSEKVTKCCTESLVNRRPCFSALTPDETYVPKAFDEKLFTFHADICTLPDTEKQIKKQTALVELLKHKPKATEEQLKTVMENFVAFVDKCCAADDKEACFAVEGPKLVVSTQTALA
# Chain of UniProt P02462 (P02462 173-1440, chain 1 of 2): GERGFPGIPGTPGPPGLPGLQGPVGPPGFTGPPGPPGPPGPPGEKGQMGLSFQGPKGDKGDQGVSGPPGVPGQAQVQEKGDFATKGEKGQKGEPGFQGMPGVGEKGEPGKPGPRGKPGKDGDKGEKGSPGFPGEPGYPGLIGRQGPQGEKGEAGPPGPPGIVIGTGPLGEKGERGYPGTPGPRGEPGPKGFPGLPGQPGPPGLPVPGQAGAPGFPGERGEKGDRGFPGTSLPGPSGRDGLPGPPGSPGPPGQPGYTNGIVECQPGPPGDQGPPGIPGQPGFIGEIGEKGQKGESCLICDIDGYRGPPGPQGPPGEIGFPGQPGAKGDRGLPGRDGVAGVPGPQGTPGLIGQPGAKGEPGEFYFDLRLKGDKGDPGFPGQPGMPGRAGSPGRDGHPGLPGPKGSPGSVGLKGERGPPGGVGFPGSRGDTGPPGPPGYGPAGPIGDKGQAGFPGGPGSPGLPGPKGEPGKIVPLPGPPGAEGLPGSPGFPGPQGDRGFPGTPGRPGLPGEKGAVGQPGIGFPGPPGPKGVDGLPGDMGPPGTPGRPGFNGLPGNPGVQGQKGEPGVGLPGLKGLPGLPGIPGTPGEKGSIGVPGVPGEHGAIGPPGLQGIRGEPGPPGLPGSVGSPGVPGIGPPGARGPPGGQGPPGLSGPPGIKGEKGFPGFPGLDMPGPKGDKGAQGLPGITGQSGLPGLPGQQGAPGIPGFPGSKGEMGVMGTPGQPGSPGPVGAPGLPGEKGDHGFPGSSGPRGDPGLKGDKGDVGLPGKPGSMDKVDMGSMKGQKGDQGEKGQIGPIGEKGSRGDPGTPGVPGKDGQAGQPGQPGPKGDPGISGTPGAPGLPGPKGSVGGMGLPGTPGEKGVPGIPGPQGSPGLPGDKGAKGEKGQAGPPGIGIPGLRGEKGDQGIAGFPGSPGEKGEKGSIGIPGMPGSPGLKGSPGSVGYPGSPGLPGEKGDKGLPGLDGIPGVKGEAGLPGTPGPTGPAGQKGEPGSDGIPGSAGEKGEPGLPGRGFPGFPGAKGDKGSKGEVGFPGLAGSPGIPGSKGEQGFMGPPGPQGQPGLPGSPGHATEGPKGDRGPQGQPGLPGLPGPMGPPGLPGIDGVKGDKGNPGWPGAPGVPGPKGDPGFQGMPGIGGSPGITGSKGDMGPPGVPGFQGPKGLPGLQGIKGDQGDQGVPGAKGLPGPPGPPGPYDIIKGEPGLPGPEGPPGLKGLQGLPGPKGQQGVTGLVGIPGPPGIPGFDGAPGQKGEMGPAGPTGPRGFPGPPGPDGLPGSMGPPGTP
# Chain of UniProt P02462 (P08572 184-1484, chain 2 of 2, further chain): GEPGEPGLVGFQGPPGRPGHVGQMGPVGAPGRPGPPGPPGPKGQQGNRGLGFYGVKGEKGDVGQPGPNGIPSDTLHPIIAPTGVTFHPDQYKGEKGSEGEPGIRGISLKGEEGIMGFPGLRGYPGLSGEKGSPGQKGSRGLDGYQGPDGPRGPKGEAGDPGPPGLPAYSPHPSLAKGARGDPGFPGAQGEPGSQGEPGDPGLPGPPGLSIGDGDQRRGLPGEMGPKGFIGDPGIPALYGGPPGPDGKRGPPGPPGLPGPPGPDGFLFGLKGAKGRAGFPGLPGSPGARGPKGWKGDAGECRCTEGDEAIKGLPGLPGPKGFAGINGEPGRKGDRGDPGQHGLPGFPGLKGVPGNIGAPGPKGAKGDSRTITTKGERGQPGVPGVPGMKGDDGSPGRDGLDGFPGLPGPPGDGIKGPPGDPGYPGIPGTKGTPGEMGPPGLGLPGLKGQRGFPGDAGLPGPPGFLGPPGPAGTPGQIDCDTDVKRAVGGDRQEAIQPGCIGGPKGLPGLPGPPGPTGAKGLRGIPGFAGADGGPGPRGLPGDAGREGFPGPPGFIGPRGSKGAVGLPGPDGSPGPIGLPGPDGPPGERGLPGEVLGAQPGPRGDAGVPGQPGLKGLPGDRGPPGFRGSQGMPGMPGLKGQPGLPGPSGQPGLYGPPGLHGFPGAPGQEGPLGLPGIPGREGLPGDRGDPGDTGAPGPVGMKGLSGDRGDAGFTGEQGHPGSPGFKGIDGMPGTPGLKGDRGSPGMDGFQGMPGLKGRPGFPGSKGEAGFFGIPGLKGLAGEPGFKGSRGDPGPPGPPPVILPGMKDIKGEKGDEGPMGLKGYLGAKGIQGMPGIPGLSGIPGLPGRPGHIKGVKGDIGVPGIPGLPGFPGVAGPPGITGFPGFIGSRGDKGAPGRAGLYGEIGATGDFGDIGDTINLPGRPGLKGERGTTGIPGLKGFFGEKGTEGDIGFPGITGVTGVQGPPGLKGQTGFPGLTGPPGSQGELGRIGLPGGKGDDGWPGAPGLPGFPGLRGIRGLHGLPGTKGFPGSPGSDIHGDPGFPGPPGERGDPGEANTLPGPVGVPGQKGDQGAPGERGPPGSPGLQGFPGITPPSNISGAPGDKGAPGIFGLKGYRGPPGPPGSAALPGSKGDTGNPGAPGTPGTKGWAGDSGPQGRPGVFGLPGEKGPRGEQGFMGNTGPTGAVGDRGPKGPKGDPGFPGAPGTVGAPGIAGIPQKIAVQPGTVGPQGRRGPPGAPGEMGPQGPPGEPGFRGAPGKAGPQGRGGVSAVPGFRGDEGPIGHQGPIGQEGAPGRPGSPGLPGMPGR
Relative mapA Binding (relative density) [2],Relative mapA Binding (relative density) [3],Relative mapA Binding (relative density) [4],Relative mapA Binding (relative density) [5],Relative mapA Binding (relative density) [6],Relative mapA Binding (relative density) [7],Substance,height of the HPLC peak of unhydrolysed αs1-casein(1-17) after incubation with pepO-transformed HN001 (non-transformed: approximately 250 mAU) [1]
,,,,,,HN001 peptidase pepO,the major peak of unhydrolysed αs1-casein(1-17) had a height of approximately 150 mAU
2.57,0.83,0.76,0.78,0.67,1.02,mucus adhesion promoting (mapA) protein of Lactobacillus reuteri,

# From patent US20020159976A1
